Results from article PMC8494340, “Enhancers with cooperative Notch binding sites are more resistant to regulation by the Hairless co-repressor” (PLoS Genetics, 2020).

Target: T1, Drosophila Su(H) (aa 98–523) (Drosophila, UniProt P28159 98-523)
T1 construct: Suppressor of Hairless, Su(H), Drosophila, residues 98-523; also called Suppressor of Hairless; CSL transcription factor
Assay: native gel or EMSA; purified proteins mixed with fluorescently labelled 2xCSL17 and 1xSPS15 DNA probes, room temperature 20 minutes; Su(H) 2.5 to 160 nM, 2 μM Hairless or NICD/Mam; the protein complexes are seen bound to the DNA probe; band intensities fitted to a 2-site equilibrium model
Conditions: both partners purified

T1 sequence (P28159 98-523): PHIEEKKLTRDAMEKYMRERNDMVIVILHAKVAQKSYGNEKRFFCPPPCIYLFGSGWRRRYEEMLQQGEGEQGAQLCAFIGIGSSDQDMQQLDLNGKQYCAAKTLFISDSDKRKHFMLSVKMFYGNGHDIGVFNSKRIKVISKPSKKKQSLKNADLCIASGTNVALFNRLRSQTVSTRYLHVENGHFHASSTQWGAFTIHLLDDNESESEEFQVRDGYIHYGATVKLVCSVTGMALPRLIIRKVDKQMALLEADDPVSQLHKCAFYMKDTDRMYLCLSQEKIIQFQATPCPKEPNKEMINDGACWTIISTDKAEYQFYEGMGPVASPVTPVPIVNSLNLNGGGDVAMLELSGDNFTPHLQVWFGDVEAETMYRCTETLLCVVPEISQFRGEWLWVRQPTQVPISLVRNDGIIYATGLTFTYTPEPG

Row | binding result | Binder
1 | binds | Drosophila Notch intracellular domain, NICD (aa 1763–2142) (domain or fragment, UniProt P07207 1763-2142, looked up, Notch, Drosophila, intracellular domain, residues 1763-2142) VLSTQRKRAHGVTWFPEGFRAPAAVMSRRRRDPHGQEMRNLNKQVAMQSQGVGQPGAHWSDDESDMPLPKRQRSDPVSGVGLGNNGGYASDHTMVSEYEEADQRVWSQAHLDVVDVRAIMTPPAHQDGGKHDVDARGPCGLTPLMIAAVRGGGLDTGEDIENNEDSTAQVISDLLAQGAELNATMDKTGETSLHLAARFARADAAKRLLDAGADANCQDNTGRTPLHAAVAADAMGVFQILLRNRATNLNARMHDGTTPLILAARLAIEGMVEDLITADADINAADNSGKTALHWAAAVNNTEAVNILLMHHANRDAQDDKDETPLFLAAREGSYEACKALLDNFANREITDHMDRLPRDVASERLHHDIVRLLDEHVPR
2 | binds | Drosophila Mastermind (aa 87–307) (domain or fragment, UniProt P21519 87-307, looked up, Mastermind, Drosophila, residues 87-307; also called Mam; MAM) PYNANLGATGGIAGITGGNGAGGPTNPGAVPTAPGDTMPTKRMPVVDRLRRRMENYRRRQTDCVPRYEQAFNTVCEQQNQETTVLQKRFLESKNKRAAKKTDKKLPDPSQQHQQQQHQQQQQHQQHQQHQQAQTMLAGQLQSSVHVQQKFLKRPAEDVDNGPDSFEPPHKLPNNNNNSNSNNNNGNANANNGGNGSNTGNNTNNNGNSTNNNGGSNNNGSE
